The target in the assay is β1 wild-type cytoplasmic tail peptide. As to the kind of experiment: pull-down.

Data on 1 substance can be found in publication PMC6053543.

Substance “recombinant full length talin-1, P26039 1-2541” returned a fold more talin pulled down with equal molar FL-Kank2 than with GST only of 5 fold and a fold more talin pulled down with equal molar GST-KN than with GST only of 5 fold.
